Laboratory results taken from article PMC4509764.

Legend:
[1] = biological target: T1, NanR (Clostridium perfringens strain 13) (UniProt P26833); experiment: EMSA; conditions: 20 mM HEPES pH 7.6, 1 mM EDTA, 10 mM ([…], room temperature 20 min
T1 sequence: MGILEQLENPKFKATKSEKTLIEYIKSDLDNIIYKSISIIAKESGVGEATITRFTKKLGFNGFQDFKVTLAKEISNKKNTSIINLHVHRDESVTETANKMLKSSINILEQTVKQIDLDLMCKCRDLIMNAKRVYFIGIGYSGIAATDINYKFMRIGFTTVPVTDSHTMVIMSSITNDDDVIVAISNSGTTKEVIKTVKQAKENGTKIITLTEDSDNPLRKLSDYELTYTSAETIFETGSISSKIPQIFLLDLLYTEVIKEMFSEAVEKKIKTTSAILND

[2] = biological target: T1, NanR (Clostridium perfringens strain 13); experiment: competition; conditions: 20 mM HEPES pH 7.6, 1 mM EDTA, 10 mM ([…], room temperature 20 min

Sequence	binding [1]	binding [2]
ATATTTTGATACATGCTCTTTTTTTATGAAATAAATTTTCAAAAACAAAAATTATAGGAATAAAAGTGAAAAAAATATGAATAAAAATGGCTTGAAACATAGGTTGTAGGCATATTTGGAAAAACTAAGAACCATAAAATAGAAAAATATTTTCAAAAAGTATTGAAATTCTGTGGGAAAAGGATTACAATAAAAACATAAAGAAAATAATTTTCAGAAAAAAGGTGATAAAATG (double strand) [nanE promoter probe]	binds	binds
CTTTCAATAATTACCCCTCCTAATTTATTTCATTAGTATTTATTATATGGTTCTTAACTTAATTATAACTTATTTCTAGGGAAAGTTATTATTAATTAGTAGATAAATATAAAATTTGCGTAGTATAAACTGTATTTTATACAATTTTAGTAATATTAAAGCTTATTTAAACGTATACATAATATAAGGTC (double strand) [nanJ promoter probe]	binds more weakly	
